Measured values taken from the supplement of paper PMC7877785.
± gives the uncertainty stated by the source.

Assay: self-splicing fitness, log relative to wild type (ln ratio); higher = more splicing; Tetrahymena group I intron in knt gene, E. coli kanamycin selection, DiMSum; sequences stand for … in CUCUCU…GGAGGGAAAAGUUAUCAGGCAUGCACCUGGUAGCUAGUCUUUAAACCAAUAGAUUGCAUCGGUUUAAAAGGCAAGACCGUCAAAUUGCGGGAAAGGGGUCAACAGCCGUUCAGUACCAAGUCUCAGGGGAAACUUUGAGAUGGCCUUGCAAAGGGUAUGGUAAUAAGCUGACGGACAUGGUCCUAACCACGCAGCCAAGUCCUAAGUCAACAGAUCUUCUGUUGAUAUGGAUGCAGUUCACAGACUAAAUGUCGGUCGGGGAAGAUGUAUUCUUCUCAUAAGAUAUAGUCGGACCUCUCCUUAAUGGGAGCUAGCGGAUGAAGUGAUGCAACACUGGAGCCGCUGGGAACUAAUUUGUAUGCGAAAGUAUAUUGAUUAGUUUUGGAGUACUCGUGGUCG
Summary of the method: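 Six replicate transformations of E. coli BL21(DE3) with a pET-22b(+) library were grown overnight at 37°C or 30°C. The library randomised all eight P1ex-region intron nucleotides, the intron lying in the knt kanamycin-resistance gene, and plates were LB agar with or without 25 μg/mL kanamycin plus 100 μg/mL carbenicillin, 50 μM IPTG and 0.2% rhamnose. Pooled colonies were amplicon-sequenced on an Illumina HiSeq 2500, and fitness is the DiMSum error-weighted combination of wild-type-normalised replicate fold changes, kanamycin versus none.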

Row | Sequence | self-splicing fitness (ln) (30 °C) | self-splicing fitness (ln) (37 °C)
1 | AAAAAGCAAUAUUACGAAAA | -2.26 ± 0.17 | -0.664 ± 0.14
2 | AAAAAGCAAUAUUACGAAGU | -2.08 ± 0.13 | -0.998 ± 0.15
3 | AAAAAGCAAUAUUACGACGG | -1.76 ± 0.17 | -1.12 ± 0.21
4 | AAAAAGCAAUAUUACGACUA | -0.0366 ± 0.1 | 0.028 ± 0.1
5 | AAAAAGCAAUAUUACGAGUA | -1.68 ± 0.12 | -0.884 ± 0.11
6 | AAAAAGCAAUAUUACGCACA | -0.661 ± 0.067 | -0.183 ± 0.087
7 | AAAAAGCAAUAUUACGCAGA | -2.35 ± 0.15 | -1.86 ± 0.14
8 | AAAAAGCAAUAUUACGCAGG | -2.42 ± 0.15 | -1.03 ± 0.14
9 | AAAAAGCAAUAUUACGCAGU | -1.99 ± 0.15 | -2.19 ± 0.2
10 | AAAAAGCAAUAUUACGCCCC | -0.356 ± 0.25 | 0.308 ± 0.34
11 | AAAAAGCAAUAUUACGCCCG | -0.481 ± 0.16 | 0.243 ± 0.23
12 | AAAAAGCAAUAUUACGCGAA | -2.07 ± 0.12 | -1.19 ± 0.16
13 | AAAAAGCAAUAUUACGCUUA | -1.36 ± 0.13 | -0.916 ± 0.12
14 | AAAAAGCAAUAUUACGGAAC | -2.97 ± 0.16 | -1.77 ± 0.2
15 | AAAAAGCAAUAUUACGGACG | -0.378 ± 0.064 | 0.25 ± 0.084
16 | AAAAAGCAAUAUUACGGCGG | -1.18 ± 0.059 | -0.131 ± 0.077
17 | AAAAAGCAAUAUUACGGGCG | -0.625 ± 0.075 | -0.721 ± 0.091
18 | AAAAAGCAAUAUUACGGUCC | -0.603 ± 0.084 | 0.0637 ± 0.11
19 | AAAAAGCAAUAUUACGUCCA | -0.18 ± 0.076 | 0.113 ± 0.11
20 | AAAAAGCAAUAUUACGUCUC | -1.51 ± 0.078 | -0.62 ± 0.093
21 | AAAAAGCAAUAUUACGUGAG | -0.91 ± 0.056 | -0.523 ± 0.092
22 | AAAAAGCAAUAUUACGUGGG | -3.51 ± 0.13 | -2.03 ± 0.13
23 | AAAAAGCAAUAUUACGUUAC | -2.57 ± 0.14 | -1.91 ± 0.15
24 | AAAAAGCAAUAUUACGUUUC | -2.04 ± 0.13 | -3.26 ± 0.28

Row | Sequence | self-splicing fitness (ln) (30 °C) | self-splicing fitness (ln) (37 °C)
25 | AAAAAGCAAUAUUACGUUUU | -2.42 ± 0.13 | -2.39 ± 0.14
26 | AAACAGCAAUAUUACGAACG | -2.5 ± 0.12 | -0.625 ± 0.12
27 | AAACAGCAAUAUUACGACAU | -0.514 ± 0.011 | -0.112 ± 0.032
28 | AAACAGCAAUAUUACGAGGC | -3.32 ± 0.17 | -3.12 ± 0.28
29 | AAACAGCAAUAUUACGCAAA | -2.87 ± 0.12 | -1.75 ± 0.1
30 | AAACAGCAAUAUUACGCGAA | -1.95 ± 0.096 | -1.43 ± 0.11
31 | AAACAGCAAUAUUACGCGAC | -2.77 ± 0.21 | -1.68 ± 0.14
32 | AAACAGCAAUAUUACGCGAU | -2.98 ± 0.16 | -2.42 ± 0.17
33 | AAACAGCAAUAUUACGCGUU | -3.11 ± 0.11 | -1.1 ± 0.1
34 | AAACAGCAAUAUUACGCUCU | -0.653 ± 0.085 | 0.413 ± 0.086
35 | AAACAGCAAUAUUACGGAGG | -4.68 ± 0.36 | -1.86 ± 0.2
36 | AAACAGCAAUAUUACGGAUC | -2.82 ± 0.11 | -1.73 ± 0.11
37 | AAACAGCAAUAUUACGGAUG | -3.43 ± 0.16 | -3 ± 0.2
38 | AAACAGCAAUAUUACGGAUU | -1.67 ± 0.068 | -0.362 ± 0.079
39 | AAACAGCAAUAUUACGGCUA | -0.275 ± 0.064 | -0.0695 ± 0.076
40 | AAACAGCAAUAUUACGUCCU | -0.281 ± 0.07 | 0.347 ± 0.094
41 | AAACAGCAAUAUUACGUUAA | -2.66 ± 0.11 | -0.816 ± 0.092
42 | AAACAGCAAUAUUACGUUAU | -2.23 ± 0.072 | -1.22 ± 0.085
43 | AAACAGCAAUAUUACGUUUU | -3.81 ± 0.11 | -3 ± 0.15
44 | AAAGAGCAAUAUUACGAACA | -2.07 ± 0.35 | -2.02 ± 0.4
45 | AAAGAGCAAUAUUACGACAG | -3.56 ± 0.3 | -2.86 ± 0.36
46 | AAAGAGCAAUAUUACGACCG | -3.83 ± 0.18 | -2.5 ± 0.19
47 | AAAGAGCAAUAUUACGACCU | -1.39 ± 0.15 | -0.748 ± 0.16
48 | AAAGAGCAAUAUUACGACUA | -2.38 ± 0.3 | -1.12 ± 0.25

Row | Sequence | self-splicing fitness (ln) (30 °C) | self-splicing fitness (ln) (37 °C)
49 | AAAGAGCAAUAUUACGAUGG | -3.63 ± 0.33 | -1.89 ± 0.25
50 | AAAGAGCAAUAUUACGAUGU | -2.08 ± 0.17 | -1.37 ± 0.23
51 | AAAGAGCAAUAUUACGAUUU | -0.695 ± 0.14 | 0.468 ± 0.13
52 | AAAGAGCAAUAUUACGCCGG | -3.8 ± 0.42 | -2.53 ± 0.24
53 | AAAGAGCAAUAUUACGCCUG | -2.57 ± 0.28 | -1.76 ± 0.33
54 | AAAGAGCAAUAUUACGCGAU | -2.63 ± 0.35 | -2.04 ± 0.34
55 | AAAGAGCAAUAUUACGCGGA | -3.29 ± 0.33 | -2.33 ± 0.22
56 | AAAGAGCAAUAUUACGCUCC | -2.57 ± 0.3 | -2 ± 0.41
57 | AAAGAGCAAUAUUACGGAAA | -2.38 ± 0.26 | -2.53 ± 0.41
58 | AAAGAGCAAUAUUACGGACA | -2.68 ± 0.3 | -1.81 ± 0.32
59 | AAAGAGCAAUAUUACGGCUA | -1.28 ± 0.11 | -1.13 ± 0.13
60 | AAAGAGCAAUAUUACGGGUA | -2.81 ± 0.26 | -1.88 ± 0.27
61 | AAAGAGCAAUAUUACGGGUG | -3.95 ± 0.21 | -1.88 ± 0.19
62 | AAAGAGCAAUAUUACGGGUU | -3.43 ± 0.16 | -2.78 ± 0.21
63 | AAAGAGCAAUAUUACGGUAA | -1.74 ± 0.3 | -1.67 ± 0.26
64 | AAAGAGCAAUAUUACGGUUU | -2.16 ± 0.11 | -1.06 ± 0.12
65 | AAAGAGCAAUAUUACGUAAC | -3.77 ± 0.31 | -2.88 ± 0.43
66 | AAAGAGCAAUAUUACGUAUG | -3.72 ± 0.25 | -2.06 ± 0.17
67 | AAAUAGCAAUAUUACGAAGG | -2.61 ± 0.21 | -1.45 ± 0.27
68 | AAAUAGCAAUAUUACGACAC | -1 ± 0.11 | 0.319 ± 0.12
69 | AAAUAGCAAUAUUACGACCA | -0.537 ± 0.12 | -0.525 ± 0.17
70 | AAAUAGCAAUAUUACGACCU | -0.0682 ± 0.092 | 0.265 ± 0.13
71 | AAAUAGCAAUAUUACGACGA | -0.696 ± 0.099 | -0.228 ± 0.14
72 | AAAUAGCAAUAUUACGACUA | -0.367 ± 0.12 | 0.06 ± 0.13

Row | Sequence | self-splicing fitness (ln) (30 °C) | self-splicing fitness (ln) (37 °C)
73 | AAAUAGCAAUAUUACGAUGU | -1.21 ± 0.078 | -0.875 ± 0.089
74 | AAAUAGCAAUAUUACGCAUU | -2.89 ± 0.14 | -1.52 ± 0.12
75 | AAAUAGCAAUAUUACGCCCC | -1.71 ± 0.32 | 0.0438 ± 0.38
76 | AAAUAGCAAUAUUACGCGGC | – | -2.2 ± 0.42
77 | AAAUAGCAAUAUUACGCUCG | -0.663 ± 0.12 | -0.925 ± 0.15
78 | AAAUAGCAAUAUUACGCUUC | -3.19 ± 0.3 | -2.99 ± 0.3
79 | AAAUAGCAAUAUUACGGAAG | -3.63 ± 0.25 | -2.15 ± 0.18
80 | AAAUAGCAAUAUUACGGAGU | -3.7 ± 0.2 | -2.61 ± 0.15
81 | AAAUAGCAAUAUUACGGCCC | -0.752 ± 0.16 | -0.254 ± 0.22
82 | AAAUAGCAAUAUUACGGCCU | -0.218 ± 0.095 | 0.661 ± 0.17
83 | AAAUAGCAAUAUUACGGCGC | -1.11 ± 0.15 | -0.73 ± 0.15
84 | AAAUAGCAAUAUUACGGCUC | -0.691 ± 0.14 | 0.393 ± 0.18
85 | AAAUAGCAAUAUUACGGGCU | -2.04 ± 0.15 | -0.367 ± 0.13
86 | AAAUAGCAAUAUUACGGUUG | -1.88 ± 0.094 | -1.33 ± 0.12
87 | AAAUAGCAAUAUUACGUCCC | -0.4 ± 0.21 | -1.33 ± 0.28
88 | AAAUAGCAAUAUUACGUGCA | -1.23 ± 0.063 | -0.426 ± 0.095
89 | AAAUAGCAAUAUUACGUGCC | -1.46 ± 0.084 | -0.919 ± 0.09
90 | AAAUAGCAAUAUUACGUUCG | -1.17 ± 0.088 | -0.371 ± 0.13
91 | AAAUAGCAAUAUUACGUUUC | -3.46 ± 0.39 | –
92 | AACAAGCAAUAUUACGAAAA | -1.7 ± 0.15 | -2.39 ± 0.19
93 | AACAAGCAAUAUUACGACAA | -1.28 ± 0.12 | -1.18 ± 0.098
94 | AACAAGCAAUAUUACGACGA | -1.15 ± 0.07 | -0.468 ± 0.074
95 | AACAAGCAAUAUUACGACGC | -0.761 ± 0.066 | -0.386 ± 0.076
